Measurements: US20250262210A1 (TRUSTEES OF COLUMBIA UNIVERSITY IN THE CITY OF NEW YORK, published 2025)

Target: T1, AMBRA1 (human, UniProt Q9C0C7 1-1298, limits assumed)
T1 sequence (looked up): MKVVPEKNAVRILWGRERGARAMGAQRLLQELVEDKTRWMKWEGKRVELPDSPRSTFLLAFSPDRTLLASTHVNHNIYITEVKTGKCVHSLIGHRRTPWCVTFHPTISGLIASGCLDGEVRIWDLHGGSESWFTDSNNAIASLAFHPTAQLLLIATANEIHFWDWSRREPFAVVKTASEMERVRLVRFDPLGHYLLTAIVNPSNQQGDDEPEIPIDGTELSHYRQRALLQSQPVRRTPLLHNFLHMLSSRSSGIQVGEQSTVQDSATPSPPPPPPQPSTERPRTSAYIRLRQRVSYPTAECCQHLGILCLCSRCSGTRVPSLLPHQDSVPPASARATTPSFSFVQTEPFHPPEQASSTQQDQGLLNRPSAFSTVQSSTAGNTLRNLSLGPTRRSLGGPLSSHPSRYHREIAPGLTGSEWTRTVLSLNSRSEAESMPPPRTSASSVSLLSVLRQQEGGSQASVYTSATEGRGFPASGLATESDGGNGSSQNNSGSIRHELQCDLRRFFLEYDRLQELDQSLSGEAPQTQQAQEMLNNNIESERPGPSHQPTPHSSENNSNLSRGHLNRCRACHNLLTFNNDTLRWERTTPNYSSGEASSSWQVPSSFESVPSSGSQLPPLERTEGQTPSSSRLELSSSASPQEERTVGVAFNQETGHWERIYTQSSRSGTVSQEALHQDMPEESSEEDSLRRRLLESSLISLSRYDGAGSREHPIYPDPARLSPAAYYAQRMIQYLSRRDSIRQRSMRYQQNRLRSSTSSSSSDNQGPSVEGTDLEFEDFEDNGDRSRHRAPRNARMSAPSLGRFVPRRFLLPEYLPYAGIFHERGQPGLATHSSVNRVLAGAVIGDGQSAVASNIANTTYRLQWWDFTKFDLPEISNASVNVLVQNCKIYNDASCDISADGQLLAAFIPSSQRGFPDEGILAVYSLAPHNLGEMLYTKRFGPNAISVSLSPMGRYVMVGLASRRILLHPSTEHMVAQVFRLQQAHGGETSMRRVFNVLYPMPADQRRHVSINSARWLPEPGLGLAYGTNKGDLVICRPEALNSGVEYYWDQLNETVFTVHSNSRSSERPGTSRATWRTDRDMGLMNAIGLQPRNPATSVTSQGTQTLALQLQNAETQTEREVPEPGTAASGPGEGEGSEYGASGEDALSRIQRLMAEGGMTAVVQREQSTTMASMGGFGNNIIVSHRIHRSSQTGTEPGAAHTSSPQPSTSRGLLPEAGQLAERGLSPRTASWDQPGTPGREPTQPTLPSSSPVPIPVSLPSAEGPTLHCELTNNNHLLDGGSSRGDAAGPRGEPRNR
Assay: IP/MS, LZTR1 wild type-FLAG, U87
In short: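 Extracted peptides in 3% acetonitrile/0.1% formic acid ran on a 50 cm C18 column into an Orbitrap Fusion, with MaxQuant identification and spectral counting.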

binding result: binds
B1: LZTR1-FLAG (other, human, UniProt Q8N653 1-840, looked up)
chain: MAGPGSTGGQIGAAALAGGARSKVAPSVDFDHSCSDSVEYLTLNFGPFETVHRWRRLPPCDEFVGARRSKHTVVAYKDAIYVFGGDNGKTMLNDLLRFDVKDCSWCRAFTTGTPPAPRYHHSAVVYGSSMFVFGGYTGDIYSNSNLKNKNDLFEYKFATGQWTEWKIEGRLPVARSAHGATVYSDKLWIFAGYDGNARLNDMWTIGLQDRELTCWEEVAQSGEIPPSCCNFPVAVCRDKMFVFSGQSGAKITNNLFQFEFKDKTWTRIPTEHLLRGSPPPPQRRYGHTMVAFDRHLYVFGGAADNTLPNELHCYDVDFQTWEVVQPSSDSEVGGAEVPERACASEEVPTLTYEERVGFKKSRDVFGLDFGTTSAKQPTQPASELPSGRLFHAAAVISDAMYIFGGTVDNNIRSGEMYRFQFSCYPKCTLHEDYGRLWESRQFCDVEFVLGEKEECVQGHVAIVTARSRWLRRKITQARERLAQKLEQEAAPVPREAPGVAAGGARPPLLHVAIREAEARPFEVLMQFLYTDKIKYPRKGHVEDVLLIMDVYKLALSFQLCRLEQLCRQYIEASVDLQNVLVVCESAARLQLSQLKEHCLNFVVKESHFNQVIMMKEFERLSSPLIVEIVRRKQQPPPRTPLDQPVDIGTSLIQDMKAYLEGAGAEFCDITLLLDGHPRPAHKAILAARSSYFEAMFRSFMPEDGQVNISIGEMVPSRQAFESMLRYIYYGEVNMPPEDSLYLFAAPYYYGFYNNRLQAYCKQNLEMNVTVQNVLQILEAADKTQALDMKRHCLHIIVHQFTKVSKLPTLRSLSQQLLLDIIDSLASHISDKQCAELGADI
notes: Expressed in HEK 293T, HeLa or U87 cells; used as cell lysate; also called LZTR1 wild type-FLAG; LZTR1 WT; not shown: FLAG tag at the C-terminus
